Results as given in patent US20080267980A1.

B1: CR2-DAF (protein)
chain: ISCGSPPPILNGRISYYSTPIAVGTVIRYSCSGTFRLIGEKSLLCITKDKVDGTWDKPAPKCEYFNKYSSCPEPIVPGGYKIRGSTPYRHGDSVTFACKTNFSMNGNKSVWCQANNMWGPTRLPTCVSVFPLECPALPMIHNGHHTSENVGSIAPGLSVTYSCESGYLLVGEKIINCLSSGKWSAVPPTCEEARCKSLGRFPNGKVKEPPILRVGVTANFFCDEGYRLQGPPSSRCVIAGQGVAWTKMPVCGGGSGGGGSDCGLPPDVPNAQPALEGRTSFPEDTVITYKCEESFVKIPGEKDSVICLKGSQWSDIEEFCNRSCEVPTRLNSASLKQPYITQNYFPVGTVVEYECRPGYRREPSLSPKLTCLQNLKWSTAVEFCKKKSCPNPGEIRNGQIDVPGGILFGATISFSCNTGYKLFGSTSSFCLISGSSVQWSDPLPECREIYCPAPPQIDNGIIQGERDHYGYRQSVTYACNKGFTMIGEHSIYCTV
B2: CR2-CD59 (protein)
chain: ISCGSPPPILNGRISYYSTPIAVGTVIRYSCSGTFRLIGEKSLLCITKDKVDGTWDKPAPKCEYFNKYSSCPEPIVPGGYKIRGSTPYRHGDSVTFACKTNFSMNGNKSVWCQANNMWGPTRLPTCVSVFPLECPALPMIHNGHHTSENVGSIAPGLSVTYSCESGYLLVGEKIINCLSSGKWSAVPPTCEEARCKSLGRFPNGKVKEPPILRVGVTANFFCDEGYRLQGPPSSRCVIAGQGVAWTKMPVCSGGGGSLQCYNCPNPTADCKTAVNCSSDFDACLITKAGLQVYNKCWKFEHCNFNDVTTRLRENELTYYCCKKDLCNFNEQLEN

Target: C3 ligand for CR2 deposited on CHO cells (human) (UniProt P01024)
Experiment: cell-based or functional assay

Row | Binder | 50% inhibition of CHO cell lysis
1 | B1 | 18 nM
2 | B2 | 102 nM
